What was measured:
[1] = target: CD30 expressed on L540 cells (Homo sapiens (Human)) (UniProt P28908)
[2] = target: FcγRIIIa Phe/Phe^158 on human effector cells (human) (UniProt P08637)
[3] = target: CD30 expressed on L540 cells (Homo sapiens (Human)) (UniProt P28908); assay: flow cytometry on CD30-expressing L540 cells, FITC-labeled goat anti-human secondary

UniProt P28908, sequence (P28908 19-595 limits assumed): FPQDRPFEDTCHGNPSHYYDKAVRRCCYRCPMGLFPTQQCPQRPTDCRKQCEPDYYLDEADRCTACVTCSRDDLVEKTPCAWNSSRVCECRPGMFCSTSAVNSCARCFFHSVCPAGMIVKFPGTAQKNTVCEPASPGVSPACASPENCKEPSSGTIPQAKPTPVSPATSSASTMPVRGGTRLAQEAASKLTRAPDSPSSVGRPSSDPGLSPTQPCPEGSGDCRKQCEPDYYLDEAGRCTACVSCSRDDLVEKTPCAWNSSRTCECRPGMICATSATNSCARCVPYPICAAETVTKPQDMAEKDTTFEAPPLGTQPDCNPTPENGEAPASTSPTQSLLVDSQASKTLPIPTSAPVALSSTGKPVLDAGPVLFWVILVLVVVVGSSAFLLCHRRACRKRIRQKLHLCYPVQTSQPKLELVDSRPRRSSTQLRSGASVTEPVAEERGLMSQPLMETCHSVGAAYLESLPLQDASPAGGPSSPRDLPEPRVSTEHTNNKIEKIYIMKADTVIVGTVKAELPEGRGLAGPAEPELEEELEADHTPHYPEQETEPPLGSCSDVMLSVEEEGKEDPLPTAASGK

ADCC EC50, times lower than MDX-060 CHO (FcγRIIIa Val/Phe^158 effector cells) [1] [times lower]	ADCC EC50, times lower than MDX-060 LEX (FcγRIIIa Val/Phe^158 effector cells) [1] [times lower]	ADCC EC50, times lower than MDX-060 CHO (FcγRIIIa Phe/Phe^158 effector cells) [2] [times lower]	EC50 [3] [µg/mL]	ADCC, maximal percent cell lysis (heterozygous FcγRIIIa Phe/Val^158 effector cells) [1] [%]	ADCC, maximal percent cell lysis (homozygous FcγRIIIa Phe/Phe^158 effector cells) [2] [%]	Substance
5	3	3	0.196	–	–	MDX-060 LEX^Opt (antibody)
–	–	–	0.18	31	15	MDX-060 CHO (antibody)
–	–	–	0.227	31	27	MDX-060 LEX (antibody)
